What was measured:
[1] = target: monkey GPC3-His protein (monkey); test: ELISA, coated monkey GPC3-His, antibody 10 nM
[2] = target: human GPC3, full length, on cells (human) (UniProt P51654); test: FACS on CHO-K1-human GPC3 cells
[3] = target: human GPC3-His protein (human) (UniProt P51654); test: ELISA, coated human GPC3-His, antibody 0.1 nM
[4] = target: human GPC3-His protein (human) (UniProt P51654); test: ELISA, coated human GPC3-His, antibody 0.01 nM
[5] = target: human GPC3-His protein (human) (UniProt P51654); test: ELISA, coated human GPC3-His, antibody 1 nM
[6] = target: monkey GPC3-His protein (monkey); test: ELISA, coated monkey GPC3-His, antibody 0.01 nM
[7] = target: human GPC3, full length, on cells (human) (UniProt P51654); test: FACS on CHO-K1 clone CHOK1-hGPC3.2B5
[8] = target: monkey GPC3-His protein (monkey); test: ELISA, coated monkey GPC3-His, antibody 0.001 nM
[9] = target: monkey GPC3-His protein (monkey); test: ELISA, coated monkey GPC3-His, antibody 0.1 nM
[10] = target: human GPC3-His protein (human) (UniProt P51654); test: ELISA, coated human GPC3-His, antibody 0.001 nM
[11] = target: Polypeptide GC3pep of human GPC3 (Ala524-Lys563) (human); test: ELISA, coated GC3pep, antibody 10 nM
Sequence of Polypeptide GC3pep of human GPC3 (Ala524-Lys563) (human) (peptide, as listed by the source): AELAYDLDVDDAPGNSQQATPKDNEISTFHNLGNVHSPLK

[12] = target: Polypeptide GC3pep of human GPC3 (Ala524-Lys563) (human); test: ELISA, coated GC3pep, antibody 0.1 nM
[13] = target: human GPC3-His protein (human) (UniProt P51654); test: ELISA, coated human GPC3-His, antibody 10 nM
[14] = target: murine GPC3-His protein (murine) (UniProt Q8CFZ4); test: ELISA, coated murine GPC3-His, antibody 10 nM
Sequence of UniProt Q8CFZ4 (Q8CFZ4 25-558 limits assumed): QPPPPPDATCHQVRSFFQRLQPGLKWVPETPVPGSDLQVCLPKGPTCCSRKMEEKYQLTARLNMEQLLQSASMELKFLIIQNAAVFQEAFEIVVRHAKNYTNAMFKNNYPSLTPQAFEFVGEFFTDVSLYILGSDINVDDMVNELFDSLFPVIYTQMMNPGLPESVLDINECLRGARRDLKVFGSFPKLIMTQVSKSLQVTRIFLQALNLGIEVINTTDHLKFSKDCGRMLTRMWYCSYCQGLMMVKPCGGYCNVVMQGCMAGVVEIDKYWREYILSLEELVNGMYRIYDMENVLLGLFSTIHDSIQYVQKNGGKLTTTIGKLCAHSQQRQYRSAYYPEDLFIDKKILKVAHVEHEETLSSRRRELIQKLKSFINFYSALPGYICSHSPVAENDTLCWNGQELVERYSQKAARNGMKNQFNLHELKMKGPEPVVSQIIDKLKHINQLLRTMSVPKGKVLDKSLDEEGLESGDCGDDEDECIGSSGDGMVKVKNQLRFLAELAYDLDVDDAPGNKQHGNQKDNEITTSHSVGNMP

[15] = target: murine GPC3-His protein (murine) (UniProt Q8CFZ4); test: ELISA, coated murine GPC3-His, antibody 10 nM; remark: listed apart in the source
[16] = target: murine GPC3-His protein (murine) (UniProt Q8CFZ4); test: ELISA, coated murine GPC3-His, antibody 0.001 nM
[17] = target: murine GPC3-His protein (murine) (UniProt Q8CFZ4); test: ELISA, coated murine GPC3-His, antibody 0.01 nM
[18] = target: human GPC3-His protein (human) (UniProt P51654); test: ELISA, coated human GPC3-His, antibody 0.001 nM; remark: listed apart in the source
[19] = target: murine GPC3-His protein (murine) (UniProt Q8CFZ4); test: ELISA, coated murine GPC3-His, antibody 0.001 nM; remark: listed apart in the source
[20] = target: murine GPC3-His protein (murine) (UniProt Q8CFZ4); test: ELISA, coated murine GPC3-His, antibody 0.01 nM; remark: listed apart in the source
[21] = target: Polypeptide GC3pep of human GPC3 (Ala524-Lys563) (human); test: ELISA, coated GC3pep, antibody 100 nM
[22] = target: Polypeptide GC3pep of human GPC3 (Ala524-Lys563) (human); test: ELISA, coated GC3pep, antibody 0.001 nM
[23] = target: murine GPC3-His protein (murine) (UniProt Q8CFZ4); test: ELISA, coated murine GPC3-His, antibody 100 nM
[24] = target: human GPC3-His protein (human) (UniProt P51654); test: ELISA, coated human GPC3-His, antibody 0.01 nM; remark: listed apart in the source
[25] = target: monkey GPC3-His protein (monkey); test: ELISA, coated monkey GPC3-His, antibody 0.001 nM; remark: listed apart in the source
[26] = target: human GPC3-His protein (human) (UniProt P51654); test: ELISA, coated human GPC3-His, antibody 0.0001 nM
[27] = target: murine GPC3-His protein (murine) (UniProt Q8CFZ4); test: ELISA, coated murine GPC3-His, antibody 1 nM
[28] = target: human GPC3-His protein (human) (UniProt P51654); test: ELISA, coated human GPC3-His, antibody 10 nM; remark: listed apart in the source
[29] = target: Polypeptide GC3pep of human GPC3 (Ala524-Lys563) (human); test: ELISA, coated GC3pep, antibody 0.01 nM
[30] = target: human GPC3, full length, on cells (human) (UniProt P51654); test: FACS on CHO-K1 clone CHOK1-hGPC3.1C3
[31] = target: murine GPC3-His protein (murine) (UniProt Q8CFZ4); test: ELISA, coated murine GPC3-His, antibody 0.1 nM
[32] = target: Polypeptide GC3pep of human GPC3 (Ala524-Lys563) (human); test: ELISA, coated GC3pep, antibody 0.0001 nM
[33] = target: monkey GPC3-His protein (monkey); test: ELISA, coated monkey GPC3-His, antibody 0.0001 nM
[34] = target: human GPC3, full length, on cells (human) (UniProt P51654); test: FACS on HepG2 cells, control in the row of Y035
[35] = target: monkey GPC3-His protein (monkey); test: ELISA, coated monkey GPC3-His, antibody 0.01 nM; remark: listed apart in the source
[36] = target: murine GPC3-His protein (murine) (UniProt Q8CFZ4); test: ELISA, coated murine GPC3-His, antibody 100 nM; remark: listed apart in the source
[37] = target: monkey GPC3-His protein (monkey); test: ELISA, coated monkey GPC3-His, antibody 1 nM
[38] = target: human GPC3-His protein (human) (UniProt P51654); test: ELISA, coated human GPC3-His, antibody 0.0001 nM; remark: listed apart in the source
[39] = target: monkey GPC3-His protein (monkey); test: ELISA, coated monkey GPC3-His, antibody 100 nM
[40] = target: human GPC3-His protein (human) (UniProt P51654); test: ELISA, coated human GPC3-His, antibody 0.1 nM; remark: listed apart in the source
[41] = target: human GPC3-His protein (human) (UniProt P51654); test: ELISA, coated human GPC3-His, antibody 100 nM
[42] = target: murine GPC3-His protein (murine) (UniProt Q8CFZ4); test: ELISA, coated murine GPC3-His, antibody 0.0001 nM
[43] = target: human GPC3, full length, on cells (human) (UniProt P51654); test: FACS on CHO-K1 clone CHOK1-hGPC3.3E9
[44] = target: monkey GPC3-His protein (monkey); test: ELISA, coated monkey GPC3-His, antibody 100 nM; remark: listed apart in the source
[45] = target: Polypeptide GC3pep of human GPC3 (Ala524-Lys563) (human); test: ELISA, coated GC3pep, antibody 1 nM
[46] = target: Polypeptide GC3pep of human GPC3 (Ala524-Lys563) (human); test: ELISA, coated GC3pep, antibody 100 nM; remark: listed apart in the source
[47] = target: monkey GPC3-His protein (monkey); test: ELISA, coated monkey GPC3-His, antibody 10 nM; remark: listed apart in the source
[48] = target: monkey GPC3-His protein (monkey); test: ELISA, coated monkey GPC3-His, antibody 1 nM; remark: listed apart in the source
[49] = target: human GPC3, full length, on cells (human) (UniProt P51654); test: FACS on HepG2 cells, control in the row of T2-23
[50] = target: murine GPC3-His protein (murine) (UniProt Q8CFZ4); test: ELISA, coated murine GPC3-His, antibody 0.0001 nM; remark: listed apart in the source
[51] = target: monkey GPC3-His protein (monkey); test: ELISA, coated monkey GPC3-His, antibody 0.1 nM; remark: listed apart in the source
[52] = target: human GPC3-His protein (human) (UniProt P51654); test: ELISA, coated human GPC3-His, antibody 100 nM; remark: listed apart in the source
[53] = target: monkey GPC3-His protein (monkey); test: ELISA, coated monkey GPC3-His, antibody 0.0001 nM; remark: listed apart in the source
[54] = target: monkey GPC3, full length, on HEK293T cells (monkey); test: FACS on HEK293T-monkey GPC3 cells
[55] = target: human GPC3, full length, on cells (human) (UniProt P51654); test: FACS on HepG2 cells
[56] = target: human GPC3-His protein (human) (UniProt P51654); test: ELISA, coated human GPC3-His, antibody 1 nM; remark: listed apart in the source

Substance: human IgG1 subtype control (antibody)
- OD450 [1]: 0.047
- Max MFI [2]: 82
- OD450 [3]: 0.09
- OD450 [4]: 0.048
- OD450 [5]: 0.09
- OD450 [6]: 0.044
- Mean fluorescence intensity of cells [7]: 19.3
- OD450 [8]: 0.044
- OD450 [9]: 0.04
- OD450 [10]: 0.048
- OD450 [11]: 0.04
- OD450 [12]: 0.04
- OD450 [13]: 0.1
- OD450 [14]: 0.055
- OD450 [15]: 0.07
- OD450 [16]: 0.051
- OD450 [17]: 0.052
- OD450 [18]: 0.09
- OD450 [19]: 0.05
- OD450 [20]: 0.05
- OD450 [21]: 0.069
- OD450 [22]: 0.046
- OD450 [23]: 0.08
- OD450 [24]: 0.1
- OD450 [25]: 0.04
- OD450 [26]: 0.09
- OD450 [27]: 0.05
- OD450 [28]: 0.05
- OD450 [29]: 0.046
- Mean fluorescence intensity of cells [30]: 19.3
- OD450 [31]: 0.05
- OD450 [32]: 0.06
- OD450 [33]: 0.048
- Mean fluorescence intensity of cells [34]: 137
- OD450 [35]: 0.05
- OD450 [36]: 0.105
- OD450 [37]: 0.044
- OD450 [38]: 0.047
- OD450 [39]: 0.056
- OD450 [40]: 0.05
- OD450 [41]: 0.09
- OD450 [42]: 0.05
- Mean fluorescence intensity of cells [43]: 19.3
- OD450 [44]: 0.19
- OD450 [45]: 0.04
- OD450 [46]: 0.06
- OD450 [47]: 0.08
- OD450 [48]: 0.05
- Mean fluorescence intensity of cells [49]: 137
- OD450 [50]: 0.049
- OD450 [51]: 0.045
- OD450 [52]: 0.072
- OD450 [53]: 0.05
- Max MFI [54]: 95
- Max MFI [55]: 110
- OD450 [56]: 0.048
